# Test results: PMC7498355, “A quantitative binding model for the Apl protein, the dual purpose recombination-directionality factor and lysis-lysogeny regulator of bacteriophage 186”
# T1: Apl (bacteriophage 186, UniProt P21681 1-87)
# T1 sequence: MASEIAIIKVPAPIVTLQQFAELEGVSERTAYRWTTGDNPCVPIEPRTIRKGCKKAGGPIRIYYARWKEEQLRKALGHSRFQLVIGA
# B1: Apl 4 (dsDNA)
# DNA 1: TTGATGGCAAGTGTTGGCAAACAGAGTCAAATCAATTGCAAACTT
# DNA 2: AAGTTTGCAATTGATTTGACTCTGTTTGCCAACACTTGCCATCAA
# B2: attP 5 (dsDNA)
# DNA 1: ATCATTGACATAGATTGCCATTGTTTGCCAATAATTACCTATTATTCGCCATTTC
# DNA 2: GAAATGGCGAATAATAGGTAATTATTGGCAAACAATGGCAATCTATGTCAATGAT
# B3: Apl 101 (dsDNA)
# DNA 1: TGATGGCAAGTGTCTTAGGACAGAGTCAAATCA
# DNA 2: TGATTTGACTCTGTCCTAAGACACTTGCCATCA
# B4: Apl 3 (111) (dsDNA)
# DNA 1: TTGATGGCAAGTGTTGGCAAACAGAGTCAAATCA
# DNA 2: TGATTTGACTCTGTTTGCCAACACTTGCCATCAA
# B5: Apl 1101 (dsDNA)
# DNA 1: AACCCACGCAATTGATGGCAAGTGTCTTAGGACAGAGTCAAATCA
# DNA 2: TGATTTGACTCTGTCCTAAGACACTTGCCATCAATTGCGTGGGTT
# B6: Apl 2 (two pR-pL operators) (dsDNA)
# DNA 1: TTGATGGCAAGTGTTGGCAAACAG
# DNA 2: CTGTTTGCCAACACTTGCCATCAA
# B7: Apl 10101 (dsDNA)
# DNA 1: AACCCACGCAATTGACTTAGGGTGTTGGCAAACAGCTTAGGATCAATTGCAAACTT
# DNA 2: AAGTTTGCAATTGATCCTAAGCTGTTTGCCAACACCCTAAGTCAATTGCGTGGGTT
# B8: Apl 5 (dsDNA)
# DNA 1: AACCCACGCAATTGATGGCAAGTGTTGGCAAACAGAGTCAAATCAATTGCAAACTT
# DNA 2: AAGTTTGCAATTGATTTGACTCTGTTTGCCAACACTTGCCATCAATTGCGTGGGTT
# B9: Apl 6 (dsDNA)
# DNA 1: TATTTTGGCTAAACCCACGCAATTGATGGCAAGTGTTGGCAAACAGAGTCAAATCAATTGCAAACTT
# DNA 2: AAGTTTGCAATTGATTTGACTCTGTTTGCCAACACTTGCCATCAATTGCGTGGGTTTAGCCAAAATA
# B10: Apl 7 (dsDNA)
# DNA 1: TATTTTGGCTAAACCCACGCAATTGATGGCAAGTGTTGGCAAACAGAGTCAAATCAATTGCAAACTTTGGCTAATAGG
# DNA 2: CCTATTAGCCAAAGTTTGCAATTGATTTGACTCTGTTTGCCAACACTTGCCATCAATTGCGTGGGTTTAGCCAAAATA
# What was measured:
# Details in all cases: protein: recombinant; label: 32P end label on one strand; blunt
# Apl [1] = target: T1, Apl; experiment: EMSA; two retarded bands; EMSA: 50 mM Tris-HCl pH 7.5, 0.1 mM EDTA, 10% glycerol, 150 mM NaCl, on ice >=30 min, gel at 4 C; bending in TEG 50; footprint: same Tris/EDTA/glycerol with 75
# Apl [2] = target: T1, Apl; experiment: EMSA; pattern similar to central five pR-pL operators; EMSA: 50 mM Tris-HCl pH 7.5, 0.1 mM EDTA, 10% glycerol, 150 mM NaCl, on ice >=30 min, gel at 4 C; bending in TEG 50; footprint: same Tris/EDTA/glycerol with 75
# Apl [3] = target: T1, Apl; experiment: EMSA; up to 6400 nM Apl; EMSA: 50 mM Tris-HCl pH 7.5, 0.1 mM EDTA, 10% glycerol, 150 mM NaCl, on ice >=30 min, gel at 4 C; bending in TEG 50; footprint: same Tris/EDTA/glycerol with 75
# Apl [4] = target: T1, Apl; experiment: EMSA; apparent Kd (50% DNA unbound); EMSA: 50 mM Tris-HCl pH 7.5, 0.1 mM EDTA, 10% glycerol, 150 mM NaCl, on ice >=30 min, gel at 4 C; bending in TEG 50; footprint: same Tris/EDTA/glycerol with 75
# Apl [5] = target: T1, Apl; experiment: EMSA; multiple shifted species; EMSA: 50 mM Tris-HCl pH 7.5, 0.1 mM EDTA, 10% glycerol, 150 mM NaCl, on ice >=30 min, gel at 4 C; bending in TEG 50; footprint: same Tris/EDTA/glycerol with 75
binder,measurement,setting,value
B1,binding result,Apl [1],binds
B2,binding result,Apl [2],binds
B3,binding result,Apl [3],no binding
B4,Kd,Apl [4],~800 nM
B5,binding result,Apl [3],no binding
B6,binding result,Apl [3],no binding
B7,binding result,Apl [3],no binding
B8,binding result,Apl [1],binds
B9,binding result,Apl [5],binds
B10,Kd,Apl [4],~275 nM
